PMC11696179, “Molecular condensation of the CO/NF-YB/NF-YC/FT complex gates floral transition in Arabidopsis” (The EMBO Journal, 2024)

T1: CO/NF-YC9 mixture (mCherry-CO with NF-YC9-GFP), immobilised together (Arabidopsis thaliana, UniProt Q39057 1-373; Q8L4B2 1-231)
T1 chain 1: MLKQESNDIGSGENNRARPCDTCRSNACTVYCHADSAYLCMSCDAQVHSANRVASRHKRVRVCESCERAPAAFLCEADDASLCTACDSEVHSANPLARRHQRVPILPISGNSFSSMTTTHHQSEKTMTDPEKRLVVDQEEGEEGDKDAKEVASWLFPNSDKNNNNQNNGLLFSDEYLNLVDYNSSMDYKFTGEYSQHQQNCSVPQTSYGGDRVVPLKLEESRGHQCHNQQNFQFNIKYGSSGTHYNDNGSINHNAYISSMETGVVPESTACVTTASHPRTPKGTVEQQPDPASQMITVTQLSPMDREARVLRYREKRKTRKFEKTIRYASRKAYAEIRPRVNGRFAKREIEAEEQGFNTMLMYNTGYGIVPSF
T1 chain 2: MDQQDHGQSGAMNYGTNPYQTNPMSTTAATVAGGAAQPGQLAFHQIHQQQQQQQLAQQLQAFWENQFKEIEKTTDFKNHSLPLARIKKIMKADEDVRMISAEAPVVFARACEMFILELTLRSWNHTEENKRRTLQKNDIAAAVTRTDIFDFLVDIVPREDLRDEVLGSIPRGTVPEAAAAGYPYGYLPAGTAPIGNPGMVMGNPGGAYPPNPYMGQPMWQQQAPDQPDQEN

T2: NF-YC9-GFP, recombinant (Arabidopsis thaliana, UniProt Q8L4B2 1-231)
T2 chain: T1 chain 2

T3: mCherry-CO (CONSTANS), recombinant (Arabidopsis thaliana, UniProt Q39057 1-373)
T3 construct: CONSTANS (CO), Arabidopsis thaliana; No tag cleavage step is described; also called SUMO-mCherry-CO; source: E. coli Rosetta pLysS, purified (HisTrap; size exclusion when necessary); not shown: mCherry, N-terminal, kept
T3 sequence (looked up): T1 chain 1

B1: NF-YB2, recombinant (natural protein, Arabidopsis thaliana, UniProt Q9FGJ3 1-190, looked up)
chain: MGDSDRDSGGGQNGNNQNGQSSLSPREQDRFLPIANVSRIMKKALPANAKISKDAKETMQECVSEFISFVTGEASDKCQKEKRKTINGDDLLWAMTTLGFEDYVEPLKVYLQRFREIEGERTGLGRPQTGGEVGEHQRDAVGDGGGFYGGGGGMQYHQHHQFLHQQNHMYGATGGGSDSGGGAASGRTRT
notes: Nuclear Factor-Y subunit B2 (NF-YB2), Arabidopsis thaliana; Unlabelled form, as used in SPR; also called His-NF-YB2; source: E. coli Rosetta pLysS, purified (HisTrap; size exclusion when necessary)
B2: NF-YB2, recombinant, labelled with Alexa Fluor 647 (natural protein, Arabidopsis thaliana, UniProt Q9FGJ3 1-190, looked up)
chain: B1 chain
modifications: Alexa Fluor 647 label (site not stated)
notes: Nuclear Factor-Y subunit B2 (NF-YB2), Arabidopsis thaliana; Same construct as m3, with the dye, as used for TIRF single-particle imaging; also called NF-YB2 (labeled by Alexa fluor 647); NF-YB2 with Alex647; source: E. coli Rosetta pLysS, purified (HisTrap; size exclusion when necessary)
B3: NF-YC9-GFP, recombinant (natural protein, Arabidopsis thaliana, UniProt Q8L4B2 1-231, looked up)
chain: T1 chain 2
notes: Nuclear Factor-Y subunit C9 (NF-YC9), Arabidopsis thaliana; No tag cleavage step is described; also called MBP-NF-YC9-GFP; source: E. coli Rosetta pLysS, purified (HisTrap; size exclusion when necessary); not shown: GFP, C-terminal, kept
B4: mCherry-CO (CONSTANS), recombinant (natural protein)
chain: T1 chain 1

Key:
[1] = molecular target: T1, CO/NF-YC9 mixture (mCherry-CO with …); experiment: SPR; bivalent model
[2] = molecular target: B4; experiment: SPR; bivalent model
NF-YC9-GFP, recombinant [3] = molecular target: T2, NF-YC9-GFP, recombinant; experiment: SPR; bivalent model
SPR; bivalent model = molecular target: the molecule itself; experiment: SPR; bivalent model
[4] = molecular target: T1, CO/NF-YC9 mixture (mCherry-CO with …); experiment: SPR; bivalent model, kd1
[5] = molecular target: B4; experiment: SPR; bivalent model, kd1
NF-YC9-GFP, recombinant [6] = molecular target: T2, NF-YC9-GFP, recombinant; experiment: SPR; bivalent model, kd1
SPR; bivalent model, kd1 = molecular target: the molecule itself; experiment: SPR; bivalent model, kd1
[7] = molecular target: T3, mCherry-CO (CONSTANS), recombinant; experiment: SPR; Biacore T200, 25 °C; CO, NF-YC9 or a CO/NF-YC9 mixture (4:1) amine-coupled to a CM5 chip (1000-2000 RU); analytes NF-YB2, CO, NF-YC9 in twofold dilutions; HBST (10 mM HEPES, 150 mM NaCl, 3 mM EDTA, 0.05% Tween 20, pH 7.4); bivalent analyte model; details: both partners purified
NF-YC9-GFP, recombinant [8] = molecular target: B3; experiment: as above; details: both partners purified
[9] = molecular target: T3, mCherry-CO (CONSTANS), recombinant; experiment: single-particle colocalisation by TIRF microscopy; 10 nM of each of two recombinant proteins mixed in 20 mM HEPES, 150 mM NaCl, pH 7.4 for 5 min, put on cover glass; details: both partners purified
NF-YC9-GFP, recombinant [10] = molecular target: B3; experiment: as above; details: both partners purified
[11] = molecular target: the molecule itself; experiment: SPR; Biacore T200, 25 °C; CO, NF-YC9 or a CO/NF-YC9 mixture (4:1) amine-coupled to a CM5 chip (1000-2000 RU); analytes NF-YB2, CO, NF-YC9 in twofold dilutions; HBST (10 mM HEPES, 150 mM NaCl, 3 mM EDTA, 0.05% Tween 20, pH 7.4); bivalent analyte model

| Kd [1] | Kd [2] | Kd (NF-YC9-GFP, recombinant [3]) | koff [4] | koff [5] | koff (NF-YC9-GFP, recombinant [6]) | binding result [7] | binding result (NF-YC9-GFP, recombinant [8]) | binding result [9] | binding result (NF-YC9-GFP, recombinant [10]) | Binder | Kd (SPR; bivalent model) | koff (SPR; bivalent model, kd1) | binding result [11] |
| --- | --- | --- | --- | --- | --- | --- | --- | --- | --- | --- | --- | --- | --- |
| 40.6 nM | 100 nM | 41.6 nM | 0.00139 s⁻¹ | 0.00202 s⁻¹ | 0.00173 s⁻¹ | binds | binds | – | – | B1 | 23.7 nM | 0.00137 s⁻¹ | – |
| – | – | – | – | – | – | – | – | binds | binds | B2 | – | – | – |
| – | – | – | – | – | – | – | – | binds | – | B3 | 27.8 nM | 0.0017 s⁻¹ | binds |
| – | – | 53.6 nM | – | – | 0.00138 s⁻¹ | – | – | – | – | B4 | 53.8 nM | 0.0014 s⁻¹ | – |
